Holding throughout (assay): cell-based or functional assay
Test [1] has as its target HIV-1 Env of isolate 94UG103 (Clade A) (HIV-1).
Test [2] deals with HIV-1 Env of pseudovirus MGRM-F1-017 (clade F) (HIV-1).
Test [3] concerns the target HIV-1 Env of isolate MGRM-D-014 (clade D pseudovirus) (HIV-1).
In test [4] the target is HIV-1 envelope glycoprotein (Env) of isolate MGRM-C-015 (HIV-1).
For test [5], the target named is HIV-1 Env of isolate MGRM-A-014 (clade A pseudovirus) (HIV-1).
The target in test [6] is HIV-1 Env of isolate 93RW029 (clade A pseudovirus) (HIV-1).
Test [7] has as its target HIV-1 93UG077 envelope (Env) on pseudovirus (HIV-1).
For test [8], the target named is HIV-1 MGRM-AE-003 Env (pseudovirus) (HIV-1).
Test [9] has as its target HIV-1 Env of isolate MGRM-Chronic-B-001, clade B (HIV-1).
Test [10] addresses HIV-1 envelope glycoprotein (Env) of isolate MGRM-C-022 (HIV-1).
Test [11] deals with HIV-1 Env of pseudovirus MGRM-F1-016 (clade F) (HIV-1).
Test [12] deals with HIV-1 Env of isolate JRCSF (Clade B) (HIV-1) (UniProt P20871).
In test [13] the target is HIV-1 92RW024 envelope glycoprotein (Env) on pseudovirus (HIV-1 (clade A)).
Test [14] deals with HIV-1 Env of isolate MGRM-D-026 (clade D pseudovirus) (HIV-1).
The target in test [15] is HIV-1 Env of isolate 92RW009 (clade A pseudovirus) (HIV-1).
In test [16] the target is HIV-1 Env of pseudovirus MGRM-F1-014 (clade F) (HIV-1).
Test [17] has as its target HIV-1 Env of pseudovirus MGRM-G-028 (HIV-1).

This is an account of results in US20240132578A1.

Sequence of 1443_C16 (PG16) (TCN-116) (antibody) (VH): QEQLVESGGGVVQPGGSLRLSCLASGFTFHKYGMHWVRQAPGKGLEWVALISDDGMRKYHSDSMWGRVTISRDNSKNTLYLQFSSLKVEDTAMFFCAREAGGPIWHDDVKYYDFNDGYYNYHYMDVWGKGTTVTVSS
Sequence of 1443_C16 (PG16) (TCN-116) (antibody) (VL): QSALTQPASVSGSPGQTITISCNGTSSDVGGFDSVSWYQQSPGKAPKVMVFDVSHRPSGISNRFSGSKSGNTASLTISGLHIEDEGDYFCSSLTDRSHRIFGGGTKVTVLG

As for 4E10 (antibody), the IC90 (neutralization of pseudovirus) in test [1] was more than 50 µg/mL; in test [12], 44.1 µg/mL. In addition, the half-inhibitory concentration (IC50) in test [2] turned out to be 4.92 µg/mL; in [11], 7.61 µg/mL; in [16], 7.36 µg/mL. In addition, the figures for the IC50, pseudovirus neutralization in [3] and in test [14] were 3.24 µg/mL and 2.95 µg/mL, respectively. In addition, the IC50 (µg/ml), pseudovirus neutralization in test [4] was 2.52 µg/mL; in test [5] it was 1.74 µg/mL; in test [6] it was 15.5 µg/mL; in test [8] it was 0.34 µg/mL; in [9], 1.46 µg/mL; in [10] it was 5.71 µg/mL. Also, the IC50 (µg/ml), pseudovirus neutralization in test [13] was 8.88 µg/mL; in test [15] it was more than 50 µg/mL; in test [17], 6.32 µg/mL. The substance also returned a neutralization IC50 in test [7] of 11.2 µg/mL.

1443_C16 (PG16) (TCN-116) (antibody): the figures for the IC90 (neutralization of pseudovirus) in test [1] and in test [12] were 1.59 µg/mL and 0.013 µg/mL, respectively. Also, the results for the 50% inhibitory concentration (IC50) in [2], in test [11] and in test [16] were more than 50 µg/mL, 1.12 µg/mL and 0.01 µg/mL, respectively. Further, the IC50, pseudovirus neutralization is 0.003 µg/mL in [3] and more than 50 µg/mL in test [14]. Also, the IC50 (µg/ml), pseudovirus neutralization in test [4] is 0.26 µg/mL; in [5], 20.3 µg/mL; in [6], 3.83 µg/mL; in test [8], 0.03 µg/mL; in test [9], more than 50 µg/mL; in test [10], 0.25 µg/mL. In addition, the IC50 (µg/ml), pseudovirus neutralization in test [13] came out at 0.08 µg/mL; in test [15], 0.11 µg/mL; in test [17], 3.09 µg/mL. The neutralization IC50 in test [7] was more than 50 µg/mL.

Turning to 2F5 (antibody), the IC90 (neutralization of pseudovirus) amounted to 46.6 µg/mL in test [1] and 25.3 µg/mL in [12]. Further, the IC50 in test [2] is more than 50 µg/mL; in test [11], 21.5 µg/mL; in test [16], 15.1 µg/mL. Further, the IC50, pseudovirus neutralization in test [3] was found to be 2.22 µg/mL; in test [14], 4.37 µg/mL. Also, the IC50 (µg/ml), pseudovirus neutralization in [4] is more than 50 µg/mL; in test [5] it was 1.43 µg/mL; in [6] it was more than 50 µg/mL; in test [8] it was 0.24 µg/mL; in test [9], 0.55 µg/mL; in test [10], more than 50 µg/mL. Besides, the IC50 (µg/ml), pseudovirus neutralization in test [13] is 8.22 µg/mL; in test [15], 39.1 µg/mL; in [17] it was 2.24 µg/mL. In [7], the neutralization IC50 worked out at 4.45 µg/mL.
